Test results: patent publication US20070224125A1 (APPLIED RESEARCH SYSTEMS ARS HOLDING N V, published 2007)

Biological target: T1, Bovine Serum Albumin (BSA) (bovine, UniProt P02769 25-607)
T1 construct: Negative control
Experiment: proteins spotted on nitrocellulose filters, incubated with radiolabeled chemokine

T1 sequence (P02769 25-607 limits assumed): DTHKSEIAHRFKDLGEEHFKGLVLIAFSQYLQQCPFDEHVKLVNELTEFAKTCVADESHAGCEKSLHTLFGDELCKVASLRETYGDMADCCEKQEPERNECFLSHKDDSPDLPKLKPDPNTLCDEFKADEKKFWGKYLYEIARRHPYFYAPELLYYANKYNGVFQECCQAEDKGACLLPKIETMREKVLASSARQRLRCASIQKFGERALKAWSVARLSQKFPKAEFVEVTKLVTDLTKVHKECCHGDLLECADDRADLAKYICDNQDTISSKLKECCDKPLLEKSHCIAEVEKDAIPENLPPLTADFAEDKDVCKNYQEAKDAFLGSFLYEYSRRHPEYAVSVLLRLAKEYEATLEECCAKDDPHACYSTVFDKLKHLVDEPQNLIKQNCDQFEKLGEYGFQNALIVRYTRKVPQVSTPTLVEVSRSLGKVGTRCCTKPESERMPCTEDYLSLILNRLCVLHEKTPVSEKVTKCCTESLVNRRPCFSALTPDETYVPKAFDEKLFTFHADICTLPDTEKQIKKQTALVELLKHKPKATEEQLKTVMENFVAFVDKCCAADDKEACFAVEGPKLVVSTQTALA

Binder	binding result
CCL3/MIP-1alpha (ligand, UniProt P10147 24-92, looked up, also called CCL/MIP-1alpha; 125I-MIP-1alpha) SLAADTPTACCFSYTSRQIPQNFIADYFETSSQCSKPGVIFLTKRSRQVCADPSEEWVQKYVSDLELSA	no binding
CCL5/RANTES (ligand, UniProt P13501 24-91, looked up) SPYSSDTTPCCFAYIARPLPRAHIKEYFYTSGKCSNPAVVFVTRKNRQVCANPEKKWVREYINSLEMS	no binding
